One substance from publication PMC10954664 can be followed below.

The target in the assay is Cysless ATL1_(cyto)-K400C (human) (UniProt Q8WXF7). Put plainly: single-molecule photobleaching step counting (TIRF); LD655-labelled, biotinylated ATL1cyto-K mixed at ~2 μM with 1 mM GTPγS or GDP/AlF4-, diluted and immobilised (~0.3 nM) in a streptavidin-coated microfluidic chamber.

With “Cysless ATL1_(cyto)-K400C (from UniProt Q8WXF7 1-447) (domain or fragment)”, the stoichiometry N amounted to 2.

Usually stoichiometry N stands for a count of units in the complex or per binding partner.
